The subject of one data set is SARS-CoV-2. In kind it is cell-based.
Data set [1] concerns Vero cells (Monkey Kidney Epithelial Cells). The note with it: Vero cells.

Where two headings read alike, the source gives them in different places. Marks after values point to notes of the source that are not given here.

B1: lactoferrin (protein, UniProt P24627 20-708, looked up)
Lactotransferrin: APRKNVRWCTISQPEWFKCRRWQWRMKKLGAPSITCVRRAFALECIRAIAEKKADAVTLDGGMVFEAGRDPYKLRPVAAEIYGTKESPQTHYYAVAVVKKGSNFQLDQLQGRKSCHTGLGRSAGWIIPMGILRPYLSWTESLEPLQGAVAKFFSASCVPCIDRQAYPNLCQLCKGEGENQCACSSREPYFGYSGAFKCLQDGAGDVAFVKETTVFENLPEKADRDQYELLCLNNSRAPVDAFKECHLAQVPSHAVVARSVDGKEDLIWKLLSKAQEKFGKNKSRSFQLFGSPPGQRDLLFKDSALGFLRIPSKVDSALYLGSRYLTTLKNLRETAEEVKARYTRVVWCAVGPEEQKKCQQWSQQSGQNVTCATASTTDDCIVLVLKGEADALNLDGGYIYTAGKCGLVPVLAENRKSSKHSSLDCVLRPTEGYLAVAVVKKANEGLTWNSLKDKKSCHTAVDRTAGWNIPMGLIVNQTGSCAFDEFFSQSCAPGADPKSRLCALCAGDDQGLDKCVPNSKEKYYGYTGAFRCLAEDVGDVAFVKNDTVWENTNGESTADWAKNLNREDFRLLCLDGTRKPVTEAQSCHLAVAPNHAVVSRSDRAAHVKQVLLHQQALFGKNGKNCPDKFCLFKSETKNLLFNDNTECLAKLGGRPTYEEYLGTEYVTAIANLKKCSTSPLLEACAFLTR
notes: multifunctional globular protein of the transferrin family, 80 KDa
In the case of B1, the “Mean ΔCt” value with SARS-CoV-2 (0.59 mg/ml, scheme A (preincubation of virus with compound)) is 0.23; in the data set with SARS-CoV-2 (0.59 mg/ml, scheme B+C (during and after inoculum)), 0.04; in the data set with SARS-CoV-2 (0.59 mg/ml, scheme B+C+D (during, after inoculum and repeated)) it was −0.25; in the data set on SARS-CoV-2 (1.17 mg/ml, scheme A (preincubation of virus with compound)) it was 0.76; with SARS-CoV-2 (1.17 mg/ml, scheme B+C (during and after inoculum)) it was −0.08; with SARS-CoV-2 (1.17 mg/ml, scheme B+C+D (during, after inoculum and repeated)), −0.21. Moreover, the “Mean ΔCt” value with SARS-CoV-2 (2.34 mg/ml, scheme A (preincubation of virus with compound)) is recorded as 0.42; with SARS-CoV-2 (2.34 mg/ml, scheme B+C (during and after inoculum)), −0.28; in the data set on SARS-CoV-2 (2.34 mg/ml, scheme B+C+D (during, after inoculum and repeated)), −0.47; in the data set with SARS-CoV-2 (4.68 mg/ml, scheme A (preincubation of virus with compound)) it was 0.25; in the data set on SARS-CoV-2 (4.68 mg/ml, scheme B+C (during and after inoculum)), −1.52; in the data set on SARS-CoV-2 (4.68 mg/ml, scheme B+C+D (during, after inoculum and repeated)), −2.47. Also, the CC10 in data set [1] (72 h, MTT) is >4.68§ mg/ml. In addition, the CC50 in data set [1] (72 h, MTT) is on record as >4.68§ mg/ml. The “maximum nontoxic concentration (assumed)” value in data set [1] (based on CC50/CC10 data) was found to be 4.68 mg/mL.

Values taken from patent US20230270828A1, “COMPOSITION FOR USE IN THE TREATMENT OF VIRAL INFECTIONS” (BICT S.R.L., priority 2020, published 2023).
